Values belong to the binder of their own block, whether it stands above or below them. Bridges are numbered along the chain shown (N, C = ends). Primed or numbered codes have the meaning given here. [ ]: non-standard residue; d: D form. 8x polyethylene glycol‑amino = O-(8x polyethylene glycol-amino)-tyrosine, SITE 45; 9x polyethylene glycol‑azido = O-(9x polyethylene glycol-azido)-tyrosine, SITE 42; Ygp″ = O-(8x polyethylene glycol-amino)-tyrosine; Yn3″ = O-(9x polyethylene glycol-azido)-tyrosine; hSer = N[C@@H](CCO)C(=O)O; Nle = CCCC[C@H](N)C(=O)O
Biological target: T1, IL-2 receptor βγ complex (human, UniProt P14784 27-551; P31785 23-369)
T1 sequence (looked up) 1: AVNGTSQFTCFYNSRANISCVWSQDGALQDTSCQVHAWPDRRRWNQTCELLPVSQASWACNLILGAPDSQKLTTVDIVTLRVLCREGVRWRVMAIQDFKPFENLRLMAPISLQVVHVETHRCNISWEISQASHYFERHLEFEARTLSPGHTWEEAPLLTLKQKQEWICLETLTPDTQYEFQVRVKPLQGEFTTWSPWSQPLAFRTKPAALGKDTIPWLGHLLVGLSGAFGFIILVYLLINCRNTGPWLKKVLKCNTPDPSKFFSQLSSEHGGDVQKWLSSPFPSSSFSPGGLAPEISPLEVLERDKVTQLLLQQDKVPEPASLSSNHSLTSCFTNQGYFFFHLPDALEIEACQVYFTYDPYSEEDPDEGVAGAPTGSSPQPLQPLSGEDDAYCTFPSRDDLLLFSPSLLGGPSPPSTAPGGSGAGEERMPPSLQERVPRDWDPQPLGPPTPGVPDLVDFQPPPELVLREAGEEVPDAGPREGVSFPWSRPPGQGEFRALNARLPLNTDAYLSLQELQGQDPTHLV
T1 sequence (looked up) 2: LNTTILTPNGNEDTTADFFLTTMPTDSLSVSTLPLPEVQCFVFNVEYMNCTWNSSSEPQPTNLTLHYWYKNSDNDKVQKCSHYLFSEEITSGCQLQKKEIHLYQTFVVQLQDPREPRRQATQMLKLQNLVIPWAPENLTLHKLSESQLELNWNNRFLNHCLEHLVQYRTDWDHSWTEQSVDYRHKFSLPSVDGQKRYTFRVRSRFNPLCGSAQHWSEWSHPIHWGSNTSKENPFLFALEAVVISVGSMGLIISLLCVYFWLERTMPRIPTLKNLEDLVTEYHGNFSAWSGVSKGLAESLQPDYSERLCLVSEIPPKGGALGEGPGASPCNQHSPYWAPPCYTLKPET
Assay: cell-based or functional assay

B2: CMP-316, MMP2 cleaved molecule (ligand)
chain: APTSSSTKKTQLQLEHLLLDLQKILNGINNYKNPKLTR[Nle]L[hSer]Y(9x polyethylene glycol‑azido)KFY(8x polyethylene glycol‑amino)[Nle]PKKATELKHLQCLEEELKPLEEVL[hSer]LAQSKNFHLRPRDLISNINVIVLELKGSETTF[hSer]CEYADETATIVEFLNRWITFSQSIISTLT
modifications: also: K23 side chain attached to another sequence, m93 after MMP2 cleavage, product not given here as a sequence
- Average EC50, pSTAT5 Assay in NK cells: 0.46 nM

B3: CMP-326, uPa cleaved molecule (ligand)
chain: APTSSSTKKTQLQLEHLLLDLQEILNGINNYKNPKLTR[Nle]L[hSer][Yn3″]KF[Ygp″][Nle]PKKATELKHLQCLEEELKPLEEVL[hSer]LAQSKNFHLRPRDLISNINVIVLELKGSETTF[hSer]CEYADETATIVEFLNRWITFSQSIISTLT
modifications: not fully specified; ends and bridges not checked; also: Lys9-Glu23 peptide bridge cut by uPa, fragments left on side chains not given here
- Average EC50, pSTAT5 Assay in NK cells: 18 nM

B5: CMP-315, Matriptase cleaved molecule (ligand)
chain: APTSSSTKKTQLQLEHLLLDLQKILNGINNYKNPKLTR[Nle]L[hSer]Y(9x polyethylene glycol‑azido)KFY(8x polyethylene glycol‑amino)[Nle]PKKATELKHLQCLEEELKPLEEVL[hSer]LAQSKNFHLRPRDLISNINVIVLELKGSETTF[hSer]CEYADETATIVEFLNRWITFSQSIISTLT
modifications: also: matriptase cleavage product, not given here as a sequence, Lys23 side-chain attachment remnant unknown
- Average EC50, pSTAT5 Assay in NK cells: 0.387 nM

B8: CMP-326, MMP2 cleaved molecule (ligand)
chain: APTSSSTKKTQLQLEHLLLDLQEILNGINNYKNPKLTR[Nle]L[hSer][Yn3″]KF[Ygp″][Nle]PKKATELKHLQCLEEELKPLEEVL[hSer]LAQSKNFHLRPRDLISNINVIVLELKGSETTF[hSer]CEYADETATIVEFLNRWITFSQSIISTLT
modifications: not fully specified; ends and bridges not checked; also: Lys9-Glu23 peptide bridge cut by MMP2, fragments left on side chains not given here
- Average EC50, pSTAT5 Assay in NK cells: 16 nM

B9: CMP-326 (ligand)
chain: APTSSSTKKTQLQLEHLLLDLQEILNGINNYKNPKLTR[Nle]L[hSer][Yn3″]KF[Ygp″][Nle]PKKATELKHLQCLEEELKPLEEVL[hSer]LAQSKNFHLRPRDLISNINVIVLELKGSETTF[hSer]CEYADETATIVEFLNRWITFSQSIISTLT
modifications: bridge 9-23; not fully specified (bridges); ends not checked; also: further groups not given here
- Average EC50, pSTAT5 Assay in NK cells: 15.5 nM

B10: CMP-315, uPa cleaved molecule (ligand)
chain: APTSSSTKKTQLQLEHLLLDLQKILNGINNYKNPKLTR[Nle]L[hSer]Y(9x polyethylene glycol‑azido)KFY(8x polyethylene glycol‑amino)[Nle]PKKATELKHLQCLEEELKPLEEVL[hSer]LAQSKNFHLRPRDLISNINVIVLELKGSETTF[hSer]CEYADETATIVEFLNRWITFSQSIISTLT
modifications: also: uPa cleavage product, not given here as a sequence, Lys23 side-chain attachment remnant unknown
- Average EC50, pSTAT5 Assay in NK cells: 0.335 nM

B12: CMP-326, Matriptase cleaved molecule (ligand)
chain: APTSSSTKKTQLQLEHLLLDLQEILNGINNYKNPKLTR[Nle]L[hSer][Yn3″]KF[Ygp″][Nle]PKKATELKHLQCLEEELKPLEEVL[hSer]LAQSKNFHLRPRDLISNINVIVLELKGSETTF[hSer]CEYADETATIVEFLNRWITFSQSIISTLT
modifications: not fully specified; ends and bridges not checked; also: Lys9-Glu23 peptide bridge cut by matriptase, fragments left on side chains not given here
- Average EC50, pSTAT5 Assay in NK cells: 17.6 nM

B13: CMP-316, uPa cleaved molecule (ligand)
chain: APTSSSTKKTQLQLEHLLLDLQKILNGINNYKNPKLTR[Nle]L[hSer]Y(9x polyethylene glycol‑azido)KFY(8x polyethylene glycol‑amino)[Nle]PKKATELKHLQCLEEELKPLEEVL[hSer]LAQSKNFHLRPRDLISNINVIVLELKGSETTF[hSer]CEYADETATIVEFLNRWITFSQSIISTLT
modifications: also: uPa cleavage product, not given here as a sequence, Lys23 side-chain attachment remnant unknown
- Average EC50, pSTAT5 Assay in NK cells: 0.533 nM

B15: CMP-316, Matriptase cleaved molecule (ligand)
chain: APTSSSTKKTQLQLEHLLLDLQKILNGINNYKNPKLTR[Nle]L[hSer]Y(9x polyethylene glycol‑azido)KFY(8x polyethylene glycol‑amino)[Nle]PKKATELKHLQCLEEELKPLEEVL[hSer]LAQSKNFHLRPRDLISNINVIVLELKGSETTF[hSer]CEYADETATIVEFLNRWITFSQSIISTLT
modifications: also: matriptase cleavage product, not given here as a sequence, Lys23 side-chain attachment remnant unknown
- Average EC50, pSTAT5 Assay in NK cells: 0.617 nM

Other lines, results leading:

- Average EC50, pSTAT5 Assay in NK cells: 0.85 nM
B1: CMP-327, MMP2 cleaved molecule (ligand)
chain: APTSSSTKKTQLQLEHLLLDLQEILNGINNYKNPKLTR[Nle]L[hSer][Yn3″]KF[Ygp″][Nle]PKKATELKHLQCLEEELKPLEEVL[hSer]LAQSKNFHLRPRDLISNINVIVLELKGSETTF[hSer]CEYADETATIVEFLNRWITFSQSIISTLT
modifications: ends and bridges not checked; also: Lys9-Glu23 peptide bridge cut by MMP2, fragments left on side chains not given here

- Average EC50, pSTAT5 Assay in NK cells: 5.09 nM
B4: CMP-331, MMP2 cleaved molecule (ligand)
chain: APTSSSTKKTQLQLEHLLLDLQKILNGINNYKNPKLTR[Nle]L[hSer]Y(9x polyethylene glycol‑azido)KFY(8x polyethylene glycol‑amino)[Nle]PKKATELKHLQCLEEELKPLEEVL[hSer]LAQSKNFHLRPRDLISNINVIVLELKGSETTF[hSer]CEYADETATIVEFLNRWITFSQSIISTLT
modifications: not fully specified; also: N-terminus (pentanedioic acid-PEG9 linker) and Lys23 side chain attached to another sequence, what remains after MMP2 cleavage is not given here

- Average EC50, pSTAT5 Assay in NK cells: 16.6 nM
B6: CMP-327 (ligand)
chain: APTSSSTKKTQLQLEHLLLDLQEILNGINNYKNPKLTR[Nle]L[hSer][Yn3″]KF[Ygp″][Nle]PKKATELKHLQCLEEELKPLEEVL[hSer]LAQSKNFHLRPRDLISNINVIVLELKGSETTF[hSer]CEYADETATIVEFLNRWITFSQSIISTLT
modifications: bridge 9-23; not fully specified (bridges); ends not checked; also: further groups not given here

- Average EC50, pSTAT5 Assay in NK cells: 17.3 nM
B7: CMP-327, Matriptase cleaved molecule (ligand)
chain: APTSSSTKKTQLQLEHLLLDLQEILNGINNYKNPKLTR[Nle]L[hSer][Yn3″]KF[Ygp″][Nle]PKKATELKHLQCLEEELKPLEEVL[hSer]LAQSKNFHLRPRDLISNINVIVLELKGSETTF[hSer]CEYADETATIVEFLNRWITFSQSIISTLT
modifications: ends and bridges not checked; also: Lys9-Glu23 peptide bridge cut by matriptase, fragments left on side chains not given here

- Average EC50, pSTAT5 Assay in NK cells: 12.1 nM
B11: CMP-327, uPa cleaved molecule (ligand)
chain: APTSSSTKKTQLQLEHLLLDLQEILNGINNYKNPKLTR[Nle]L[hSer][Yn3″]KF[Ygp″][Nle]PKKATELKHLQCLEEELKPLEEVL[hSer]LAQSKNFHLRPRDLISNINVIVLELKGSETTF[hSer]CEYADETATIVEFLNRWITFSQSIISTLT
modifications: ends and bridges not checked; also: after uPa cleavage, remnants of the Lys9–Glu23 peptide linker not given here

- Average EC50, pSTAT5 Assay in NK cells: 6.59 nM
B14: CMP-331 (ligand)
chain: APTSSSTKKTQLQLEHLLLDLQKILNGINNYKNPKLTR[Nle]L[hSer]Y(9x polyethylene glycol‑azido)KFY(8x polyethylene glycol‑amino)[Nle]PKKATELKHLQCLEEELKPLEEVL[hSer]LAQSKNFHLRPRDLISNINVIVLELKGSETTF[hSer]CEYADETATIVEFLNRWITFSQSIISTLT
modifications: bridge N-23; not fully specified (bridges)
